Experiment: soluble on expression in E. coli; label from the status in PepcDB or PDB records

Sequence	soluble on expression in E. coli
MGSDKIHHHHHHMRESPLILPFDPAGIALDRSRGLSQQLYQALRARVLDGRLSSGTRLPATRDLAAMLALSRNSVVRAYDQLYAEGFIESRVGDGTYVSRLPKLSTQVSTGLSLGLSTGLSTFRQENTEDLSSGRHISAPLQRLKNNHLPPPRSGLPRAFRVGIPAFDLFPFDVWAKLQAGFWRNPSPAQLGYGDPAGEPALRDLIAAYLRRSRGLSCTAEQIVITSGAQQAISLCAQLLLQPGDGVAVENPGYRAAAHAFTLAGGRVCGVPVDEDGLDCGRLEQLTDCRLTYVTPAHQYPTGVTMSLARRLALLAWAERSDGWIIEDDYDGEYRYSGAPLAPLAALDRHGRVLYVGTFGKIAFPALRLGYLVLPSKLVQAFSQGRAIAVRHSEVSSQCVMAEFMARGHFQRHIRRMRKAALKRRDVLKAGWPVDIPGLGAMPEVAAGLHVKVNVDNFAREQELVAKAEAVEVEVTPLSNFWLADCEVPVDKRAGLVLGFAAVPEGEIAEALMKLRKVWRK	not soluble
MSLKAINFINWKYIGLTGCLVASLLTACGDDETGPEVVTPLEPKLEIVNEASTFSFSSAGNSAQVLTFNANQDWHIVLDDSEGVDNSWVVLFEREGTAGEGNKVWVAAAENVEPDARRANFSLVSGGFKYDFVIYQAQKDAVVITDPKAYENLDAGEHIISVEFGINTGEYKTSFLYSGDTGWIMPTDERPAGEPETRAMENHTLYFKVLPNQKFDIRRGTIEISSKDNDNVKATMNIFQTGLPKPVITVDNKEMFTNLASKEDSILLKYKATNTNGPRDLTIDIDKNDQDWISFKPAIDAKGDSTFLVSVKENTGGERTATIALCAAADKKVREEFIVTQAQASDVELVITNKNDFRTSLDKLGSAATVKYSVQSTLTDPKNEILVDIVYPEESGYTAENGWLHMANNSMPERVIFTYDVNKVLRERQATVYIYRKGYENKKDYMVIRQAAATQIEIPAPGGLTNVLQSLIDDEIYKDWESITSLELKGRLNDTDLNLLKNMMTAGKGYNLKTLDMTEVENETLKNGVFNGCNLLENISFPTGLQYVPREACRNCTKLRTVVVNEGPTYIGRHAFGNSVVNEAWFPSTMTYVYGYIFDNVTALKTLHLKSLPFQCKEVARSDADEGATQPTTWCTVFKTWPSTVYVPMEYLEYYKNPDPKHVVSMHFQDLLNTLTSESEEWTKGPKVQQPYLKSNSALKSNFTWGSSATTIMGESEGHHHHHH	soluble
MGSDKIHHHHHHVINLKELKILHTSDWHLGVTSWTSSRPVDRREELKKALDKVVEEAEKREVDLILLTGDLLHSRNNPSVVALHDLLDYLKRMMRTAPVVVLPGNHDWKGLKLFGNFVTSISSDITFVMSFEPVDVEAKRGQKVRILPFPYPDESEALRKNEGDFRFFLESRLNKLYEEALKKEDFAIFMGHFTVEGLAGYAGIEQGREIIINRALIPSVVDYAALGHIHSFREIQKQPLTIYPGSLIRIDFGEEADEKGAVFVELKRGEPPRYERIDASPLPLKTLYYKKIDTSALKSIRDFCRNFPGYVRVVYEEDSGILPDLMGEIDNLVKIE	soluble
MTEVYDLEITTNATDFPMEKKYPAGMSLNDLKKKLELVVGTTVDSMRIQLFDGDDQLKGELTDGAKSLKDLGVRDGYRIHAVDVTGGNEDFKDESMVEKYEMSDDTYGKRTDSVRAWKKKMQEEQGSAAPMENESDKLNEEAAKNIMVGNRCEVTVGAQMARRGEVAYVGATKFKEGVWVGVKYDEPVGKNDGSVAGVRYFDCDPKYGGFVRPVDVKVGDFPELSIDEI	soluble
MSLTIGIWILGDQLWSGQTALKSHQGDRSQVPVLLIESAEFARQRPYHRQKLVLVWSAMRHFAEDLRAEGWSVTYEIAADFLTPLHHWLKTQGVSHLQVMAPGDRPFEAWLKSLTLPCELTLLPNNHFLWSREDFSAWAGDRKRLLLEDFYRAGRKRWQILMVDDQPVGGRWNFDQDNRKPAKKNLSPPKPLSFPPDDITQQVIERIEQLNLPGYGQLSGFQWGEGHHHHHH	soluble
MASRRSNAKSRDKPDKYSVLLPTYNERENLPLIVWLLVKYFGESGYNYEIIVIDDGSPDGTLQIAEQLQKIYGADKILLRPRAEKLGLGTAYIHGIKHATGNFVIIMDADLSHHPKFIPQFIEKQKEGGYDLVSGTRYRGDGGVYGWDLRRKLISRGANFVTQVLLRPGASDLTGSFRLYKKEVLEKLVEQCVSKGYVFQMEMIVRARQLGYTIGEVPISFVDRVYGESKLGGNEIVSFLKGLLTLFATT	not soluble
RLPKKHYTDSLDYALFKELIRVSVASNNKQILDYYEHHCHKKNPATACQYGYVLALLNNNNFQKAAEKLNPLLLQDNSNLNFQIAMAQAELGLSQYQSALSRLAELQNNFPDNYAALMAYAQGLLTANQPQKATAVLLKGSRQYKEDLPLCRELARAQA	not soluble
MSLSLTPLSEKLRPNNLDTFIGQNHLLERLQYIISAPRLPSMLFFGPPGCGKSTLALLLAYKKSTNILRISAPETGIQQLRQKLTDIDILILDEIHRFSKAQQDFFLPLLESGKLTMLATTTENPSFSVTKQLLSRLNVLQLRQLGYNELKELVKKGTLFLNILLPDDVINFLATTAHGDARTLFNLIEYISILPEEKRVLEYIKINLPEILERHDKDGDSHYEYASALIKSIRGSNPDAALYYLACLLEGGEDPRFICRRLIISASEDIGLADPQALSLAVSCQQAVEFVGMPEGFIPLSETVVYLALARKSNSTYAAYSNAAREVRLHGAQPVPLHLRNPSTQLQKQWGYGREYKYPHNYPNAWVEQEYFPSTISNRSFYYPKEQGEEPKLNMWHNHIKKKYSEGHHHHHH	not soluble
AIARNDLFNREKSRQLSLTPRTEKIEVKHVGKTDPGTVFVMNKNISTPYSCAMHLSEWYCSKSILALVDGQPWDMYKPLTKSCEIKFLTFKDPDPREVNKAYWRSCAMMLGCVIERAFKDDYVVSLLRAPEVPVIAGAFCYDVTLDKRLDEWMPTKENLRSFTKDAHALIYRDLPFETLDVDARVALEIFQHNKYKVDFIEEKASQNPERIVKLHRIGDFIDVSEGPLIPRTSVCFQYEVSAVHNLNPSQPNLIRRFQGLSLPTHLRAQFTIWDKLVGRSRKMVTEDEVRQTENTESTQ	not soluble
PIGKSADNMYSYLALVQDDPTVQVVNMAQKAYVEHYIQGDPDLAKLPVLSAAAPFKVGGRKNDPASFVEVEKGQLTFRNAADLYLYPNTLVVMKVSGKEVKEWLECSAGQFNQIDPASSKPQSLINWDGFRTYNFDVIDGVNYQIDVTQPARYDGECQMIHPQAERIKHLTFNGKPVDPQATFLVATNNYRAYGGKFAGTGESHIAFASPDENRSVLAAWIGAQSKKEGAIHPAADNNWRLAPI	not soluble
MVSDIVLEVQSLHVYYGAIHAIKGIDLKVPRGQIVTLIGANGAGKTTTLSAIAGLVRAQKGKIIFNGQDITNKPAHVINRMGIALVPEGRRIFPELTVYENLMMGAYNRKDKEGIKRDLEWIFSLFPRLKERLKQLGGTLSGGEQQMLAIGRALMSRPKLLMMDEPSLGLAPILVSEVFEVIQKINQEGTTILLVEQNALGALKVAHYGYVLETGQIVLEGKASELLDNEMVRKAYLGVA	soluble
MLGLKTSIIGRRVIYFQEITSTNEFAKTSYLEEGTVIVADKQTMGHGALNRKWESPEGGLWLSIVLSPKVPQKDLPKIVFLGAVGVVETLKEFSIDGRIKWPNDVLVNYKAIAGVLVEGKGDKIVLGIGLNVNNKVPNGATSMKLELGSEVPLLSVFRSLITNLDRLYLNFLKNPMDILNLVRDNMILGVRVKILGDGSFEGIAEDIDDFGRLIIRLDSGEVKKVIYGDVSLRFL	soluble
MGSDKIHHHHHHVSLLGEERKSQIMQWLEEEGKVMTKDLIDRLDVSGETVRRYLEELERERQLKRVYGGAIYQGGKQESPISRRTDQLSRRLARYAKGWLADYSCIFLGKGEPVEHLLPYLSGSATIVTNSLSIASHLEQCRETGPFHGEIRLLGGTVDSYGQTVGVEVLQALDAYAFDASFLTFDGAEIERGFVSDDIESSLIQKAIIGRTKDVYAFLACDEFEGNRKYKVAEFRRAKIVLSPSTYPPSWEMKLFNERVNWTVVS	not soluble
AAGTAKGHNPTEFPTIYDASSAPTAANTTVGIITIGGVSQTLQDLQQFTSANGLASVNTQTIQTGSSNGDYSDDQQGQGEWDLDSQSIVGSAGGAVQQLLFYMADQSASGNTGLTQAFNQAVSDNVAKVINVSLGWCEADANADGTLQAEDRIFATAAAQGQTFSVSSGDEGVYECNNRGYPDGSTYSVSWPASSPNVIAVGGTTLYTTSAGAYSNETVWNEGLDSNGKLWATGGGYSVYESKPSWQSVVSGTPGRRLLPDISFDAAQGTGALIYNYGQLQQIGGTSLASPIFVGLWARLQSANSNSLGFPAASFYSAISSTPSLVHDVKSGNNGYGGYGYNAGTGWDYPTGWGSLDIAKLSAYIRSNGFGH	soluble
EKLTLAEKVWRDHVVSKGENGEPDLLYIDLQLLHEVTSPQAFDGLRMTGRKLRHPELHLATEDHNVPTEGIKTGSLLEINDKISRLQVSTLRDNCEEFGVRLHPMGDVRQGIVHTVGPQLGATQPGMTIVCGDSHTSTHGAFGSMAFGIGTSEVEHVMATQTLPLKPFKT	not soluble
MHSLYLGVVKVMAKIILVYANCVNSTAKGDFALAGQIAKDLVREKTSDDIDVVLTSTLDGIARFESLYGKAVDGRVIIEGTSVGLCALELFESVDNEVVAFIEANRCKYAPSDILKRVLSPDSKFLFIGAANQKAIATGDKFTKSWLYISHKGDQPNVYEHFDEDDSLIQSVGLGDDRLGLPSLPKVDELPEMNSTQSQKIPSGEYGFMYLAAVHGIDDVYLMNQYMSLTEMGQYVLVGEYAKQSKEVQMVLHSLQYKGSSVSLTMPQIFFHDSVDNCLMRNMVSKSSGPLVVSTGVMSSIEAMQDGKLTYYQTMSNNTQFVASYLIAVKSICSSDTTLFGSMPKLIIDLSNLLFAEKPLKESQMKEIKSLLGMSSVTSRLGEMNKRIIAKANGTVAGELLSFIGKPKTTQSHKQCISVCMSLRKSGETTSPIFDQALRRAAAWGRLFELKVLIASMSTSDLNKKDKTGNQYTALHWAVMQGHLDCARLLVKSGASVDIQDKSGKSPLHYAIKRGDKETIKLLVQAGASLEIMDDSGAKPCDGSESWVPEYIKSCYEKSGHKSSSLF	not soluble
MTLMKKFYVTTPIYYVNDVPHLGHAYTTIAADTIARYYRLRDYDVFFLTGTDEHGLKIQKKAEELGISPKELVDRNAERFKKLWEFLKIEYTKFIRTTDPYHVKFVQKVFEECYKRGDIYLGEYEGWYCVGCEEFKSEAELAEDHTCPIHQKKCEYIKEPSYFFRLSKYQDKLLELYEKNPEFIQPDYRRNEIISFVKQGLKDLSVTRPRSRVKWGIPVPFDPEHTIYVWFDALFNYISALEDKVEIYWPADLHLVGKDILRFHTVYWPAFLMSLGYELPKKVFAHGWWTVEGKKMSKTLGNVVDPYEVVQEYGLDEVRYFLLREVPFGQDGDFSKKAILNRINGELANEIGNLYSRVVNMAHKFLGGEVSGARDEEYAKIAQESIKNYENYMEKVNFYKAIEEILKFTSYLNKYVDEKQPWALNKERKKEELQKVLYALVDGLFVLTHLLYPITPNKMKEALQMLGEKEFLKELKPYSKNTYKLGERKILFPKREG	soluble
MGSDKIHHHHHHMTERNSQDIGIQARFAEAEALGAHVYVLAAPLHNGSLPGALSVRRDHVACMLDGGADVQAVSPHLIYIPPSHFESARGWLERHGPASPCATILASPLPLAALAEHLKSFLRVCLPDGEPIVLAYWDPAILATLVGSAEDETLFVKGPVLSGEQRQAFLAPILRWTYWDRKGALRQIDWRQDRMPASAATLKPPLKLDQGQVDALTEASVPDGLLQHFSEHAPELLADVPERDRYGFVCRQIARARQHGIEGPGAWMDYCALAMRHGEAFDSHPDGVALLRTILPTASDRFSAS	not soluble
MGHHHHHHSHMLKSERKQIILSQLKQDGFVTLENLTVLLSDTSESTIRRDLDELAADGKLKRVHGGAESIHGLKEEIANSQKAIRNVQEKAQLAGYAADLIKEGDVVFLEASTTNELLIPHLSNRQVTVVTNSIHHAVKLVDLGISTRIIGGKVKHSTDASIGSTALEQIRQLNFDCAFIGANGVDANYFTTPDMEEAVIKRTVIANAQKAYVLADASKLGQITYAKVAEVEKVTIITNASEEGLLKELKEKTRVIEV	soluble

From the DeepSol protein solubility set
